Target: mouse CD4 (mouse) (UniProt P06332)
Test: flow cytometry, primary C57BL/6 splenocytes ex vivo, siCy5 signal (FIG. 4B)

Chain of UniProt P06332 (P06332 27-457): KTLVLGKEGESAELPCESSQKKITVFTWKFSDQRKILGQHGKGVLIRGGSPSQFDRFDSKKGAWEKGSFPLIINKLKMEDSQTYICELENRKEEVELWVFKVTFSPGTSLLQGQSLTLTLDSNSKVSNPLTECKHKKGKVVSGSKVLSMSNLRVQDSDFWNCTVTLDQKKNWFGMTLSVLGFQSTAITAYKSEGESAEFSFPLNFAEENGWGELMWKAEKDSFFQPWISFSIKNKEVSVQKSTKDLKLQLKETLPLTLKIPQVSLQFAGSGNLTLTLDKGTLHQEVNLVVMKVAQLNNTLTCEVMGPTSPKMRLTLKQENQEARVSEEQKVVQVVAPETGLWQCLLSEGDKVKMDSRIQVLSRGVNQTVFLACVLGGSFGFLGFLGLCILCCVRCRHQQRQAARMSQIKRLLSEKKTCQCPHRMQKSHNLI

| Substance | percent of CD4+ cells that bind [%] |
| --- | --- |
| isoLNPs: lipid nanoparticles coated with an isotype control mAb (antibody) | 1 |
| tLNPs: lipid nanoparticles (siRNA-encapsulating) conjugated to DTT-reduced anti-mouse CD4 monoclonal antibody (clone YTS.177) | 100 |

— patent US20180142261A1
